{
  "source": "patent US20220042033A1",
  "about": "“COMPOSITION AND METHOD FOR CONFERRING AND/OR ENHANCING TOLERANCE AGAINST HERBICIDES BY USING VARIANTS OF PPO” (FarmHannong Co., Ltd., priority 2017, published 2022)",
  "molecules": {"B1": {"name": "R140A + A215C + Y422I: ApPPO1 (SEQ ID NO: 1) variant (protein)", "chain": "MPFTHLKPLNRLLGSPRARHPHVAPQAVSVTNTSTTRPGGRSSAPGIPGDAEYDVVIVGAGISGLTTAQALAKQYSDAVPRLLVTEARDCVGGNIITRRDGGYQWEEGPNSFQPSDAVLRAAVDAGVADRLVLGDPKAPAYVYWGGRLRATPSGPDVLTFDLLSLWGKLRAGLGAAGFKAPLPEREESVKEFVTRNLGEEVFQRLIEPFCSGVYCGDPAKLSMKAAFGKVYDLEKGGGSIVGGVLALMKARKQKPPEPRPADLPPKPKGQTVGSFDKGLVTLPSAIAEELGDRVVTGWKLESIDRSGDRFQLTYDTPQGRKKVSARSVALTVPAYTAASLLESRFPKLGKALSSIYYPPVASVALSYPETAILPERLGSDGHLAGFGQLHPRTQGVTTLGTIYASSLFPGRVPEGKVLLLSIFGGATNTRVATMPHGEIVSQVDKDLRKMLIRSDAESPHTVNVTVWPRAIPQFNVGHTDLIQEAKDDLASQGWQGLHLGGNYVAGVALGKCMEAGYKQAAELASHVKSLAT", "modifications": "Synthetic (Protoporphyrinogen IX oxidase (ApPPO1) of Auxenochlorella protothecoides)"}, "B2": {"name": "R140A + Y422T: ApPPO1 (SEQ ID NO: 1) variant (protein)", "chain": "B1 chain with C215A, I422T", "modifications": "Synthetic (Protoporphyrinogen IX oxidase (ApPPO1) of Auxenochlorella protothecoides)"}, "B3": {"name": "R140A + A215L + Y422M: ApPPO1 (SEQ ID NO: 1) variant (protein)", "chain": "B1 chain with C215L, I422M", "modifications": "Synthetic (Protoporphyrinogen IX oxidase (ApPPO1) of Auxenochlorella protothecoides)"}, "B4": {"name": "R140A + Y422I: ApPPO1 (SEQ ID NO: 1) variant (protein)", "chain": "B1 chain with C215A", "modifications": "Synthetic (Protoporphyrinogen IX oxidase (ApPPO1) of Auxenochlorella protothecoides)"}, "B5": {"name": "V213C + Y422I: ApPPO1 (SEQ ID NO: 1) variant (protein)", "chain": "B1 chain with A140R, V213C, C215A", "modifications": "Synthetic (Protoporphyrinogen IX oxidase (ApPPO1) of Auxenochlorella protothecoides)"}, "B6": {"name": "R140A + V213C + A215C + Y422I: ApPPO1 (SEQ ID NO: 1) variant (protein)", "chain": "B1 chain with V213C", "modifications": "Synthetic (Protoporphyrinogen IX oxidase (ApPPO1) of Auxenochlorella protothecoides)"}, "B7": {"name": "R140A + V213C + A215L + Y422M: ApPPO1 (SEQ ID NO: 1) variant (protein)", "chain": "B1 chain with V213C, C215L, I422M", "modifications": "Synthetic (Protoporphyrinogen IX oxidase (ApPPO1) of Auxenochlorella protothecoides)"}, "B8": {"name": "V213C + A215L + Y422M: ApPPO1 (SEQ ID NO: 1) variant (protein)", "chain": "B1 chain with A140R, V213C, C215L, I422M", "modifications": "Synthetic (Protoporphyrinogen IX oxidase (ApPPO1) of Auxenochlorella protothecoides)"}, "B9": {"name": "V213C + A215C + Y422I: ApPPO1 (SEQ ID NO: 1) variant (protein)", "chain": "B1 chain with A140R, V213C", "modifications": "Synthetic (Protoporphyrinogen IX oxidase (ApPPO1) of Auxenochlorella protothecoides)"}},
  "note": "Numbering of substitutions follows the chain as printed. Names and notes keep the numbering of the source.",
  "data": [
    {"tested_on": "ApPPO1", "assay": "Herbicide tolerance test of ApPPO1 wild type and variants in PPO-deficient E. coli BT3(ΔPPO), growth on herbicide-containing LB agar", "type": "cell-based, Auxenochlorella protothecoides", "conditions": "relative to ApPPO1 WT, dark, up to 100 μM (FIGS. 7-12)", "description": "(§1) Then, the extent of tolerance was evaluated.", "values": [
      {"molecule": "B1", "Herbicide tolerance, flumioxazin": "+++++ (more than 10,000 fold higher tolerance)"},
      {"molecule": "B2", "Herbicide tolerance, flumioxazin": "++++ (1,000-9,999 fold higher tolerance)"},
      {"molecule": "B3", "Herbicide tolerance, flumioxazin": "+++++ (more than 10,000 fold higher tolerance)"},
      {"molecule": "B4", "Herbicide tolerance, flumioxazin": "+++++ (more than 10,000 fold higher tolerance)"},
      {"molecule": "B5", "Herbicide tolerance, flumioxazin": "+++++ (more than 10,000 fold higher tolerance)"},
      {"molecule": "B6", "Herbicide tolerance, flumioxazin": "+++++ (more than 10,000 fold higher tolerance)"},
      {"molecule": "B7", "Herbicide tolerance, flumioxazin": "+++++ (more than 10,000 fold higher tolerance)"},
      {"molecule": "B8", "Herbicide tolerance, flumioxazin": "+++++ (more than 10,000 fold higher tolerance)"},
      {"molecule": "B9", "Herbicide tolerance, flumioxazin": "+++++ (more than 10,000 fold higher tolerance)"}
    ]},
    {"tested_on": "ApPPO1", "assay": "Herbicide tolerance test of ApPPO1 wild type and variants in PPO-deficient E. coli BT3(ΔPPO), growth on herbicide-containing LB agar", "type": "cell-based, Auxenochlorella protothecoides", "conditions": "relative to ApPPO1 WT, dark, up to 200 μM (FIGS. 7-12)", "description": "as §1", "values": [
      {"molecule": "B1", "Herbicide tolerance, tiafenacil": "+++++ (more than 10,000 fold higher tolerance)"},
      {"molecule": "B2", "Herbicide tolerance, tiafenacil": "++++ (1,000-9,999 fold higher tolerance)"},
      {"molecule": "B3", "Herbicide tolerance, tiafenacil": "+++++ (more than 10,000 fold higher tolerance)"},
      {"molecule": "B4", "Herbicide tolerance, tiafenacil": "+++++ (more than 10,000 fold higher tolerance)"},
      {"molecule": "B5", "Herbicide tolerance, tiafenacil": "++++ (1,000-9,999 fold higher tolerance)"},
      {"molecule": "B6", "Herbicide tolerance, tiafenacil": "+++++ (more than 10,000 fold higher tolerance)"},
      {"molecule": "B7", "Herbicide tolerance, tiafenacil": "+++++ (more than 10,000 fold higher tolerance)"},
      {"molecule": "B8", "Herbicide tolerance, tiafenacil": "+++++ (more than 10,000 fold higher tolerance)"},
      {"molecule": "B9", "Herbicide tolerance, tiafenacil": "+++++ (more than 10,000 fold higher tolerance)"}
    ]},
    {"tested_on": "ApPPO1", "assay": "Herbicide tolerance test of ApPPO1 wild type and variants in PPO-deficient E. coli BT3(ΔPPO), growth on herbicide-containing LB agar", "type": "cell-based, Auxenochlorella protothecoides", "conditions": "relative to ApPPO1 WT, dark, up to 400 μM (FIGS. 7-12)", "description": "as §1", "values": [
      {"molecule": "B1", "Herbicide tolerance, sulfentrazone": "++++ (1,000-9,999 fold higher tolerance)"},
      {"molecule": "B2", "Herbicide tolerance, sulfentrazone": "+++ (100-999 fold higher tolerance)"},
      {"molecule": "B3", "Herbicide tolerance, sulfentrazone": "++++ (1,000-9,999 fold higher tolerance)"},
      {"molecule": "B4", "Herbicide tolerance, sulfentrazone": "++++ (1,000-9,999 fold higher tolerance)"},
      {"molecule": "B5", "Herbicide tolerance, sulfentrazone": "+++ (100-999 fold higher tolerance)"},
      {"molecule": "B6", "Herbicide tolerance, sulfentrazone": "++++ (1,000-9,999 fold higher tolerance)"},
      {"molecule": "B7", "Herbicide tolerance, sulfentrazone": "++++ (1,000-9,999 fold higher tolerance)"},
      {"molecule": "B8", "Herbicide tolerance, sulfentrazone": "++++ (1,000-9,999 fold higher tolerance)"},
      {"molecule": "B9", "Herbicide tolerance, sulfentrazone": "++++ (1,000-9,999 fold higher tolerance)"}
    ]}
  ]
}
